pKd: −log10 of the molar value.
Experiments:
[1] = biological target: CEP-BSA (21:1 molar ratio) (bovine (from the name BSA)) (UniProt P02769); assay: BLI; Octet K2; CEP-BSA or fibrinogen amine-coupled to AR2G biosensor; active αD I-domain 50-1000 nM in the mobile phase; 20 mM HEPES, 150 mM NaCl, 1 mM CaCl2, 1 mM MgCl2, 0.02% Tween-20, 0.02% BSA, pH 7.5; KD from a plot of response at equilibrium against concentration
Human fibrinogen (human) = Human fibrinogen (human) (UniProt P02671); assay: as above
Sequence of UniProt P02671 (P02671 36-866, chain 1 of 3): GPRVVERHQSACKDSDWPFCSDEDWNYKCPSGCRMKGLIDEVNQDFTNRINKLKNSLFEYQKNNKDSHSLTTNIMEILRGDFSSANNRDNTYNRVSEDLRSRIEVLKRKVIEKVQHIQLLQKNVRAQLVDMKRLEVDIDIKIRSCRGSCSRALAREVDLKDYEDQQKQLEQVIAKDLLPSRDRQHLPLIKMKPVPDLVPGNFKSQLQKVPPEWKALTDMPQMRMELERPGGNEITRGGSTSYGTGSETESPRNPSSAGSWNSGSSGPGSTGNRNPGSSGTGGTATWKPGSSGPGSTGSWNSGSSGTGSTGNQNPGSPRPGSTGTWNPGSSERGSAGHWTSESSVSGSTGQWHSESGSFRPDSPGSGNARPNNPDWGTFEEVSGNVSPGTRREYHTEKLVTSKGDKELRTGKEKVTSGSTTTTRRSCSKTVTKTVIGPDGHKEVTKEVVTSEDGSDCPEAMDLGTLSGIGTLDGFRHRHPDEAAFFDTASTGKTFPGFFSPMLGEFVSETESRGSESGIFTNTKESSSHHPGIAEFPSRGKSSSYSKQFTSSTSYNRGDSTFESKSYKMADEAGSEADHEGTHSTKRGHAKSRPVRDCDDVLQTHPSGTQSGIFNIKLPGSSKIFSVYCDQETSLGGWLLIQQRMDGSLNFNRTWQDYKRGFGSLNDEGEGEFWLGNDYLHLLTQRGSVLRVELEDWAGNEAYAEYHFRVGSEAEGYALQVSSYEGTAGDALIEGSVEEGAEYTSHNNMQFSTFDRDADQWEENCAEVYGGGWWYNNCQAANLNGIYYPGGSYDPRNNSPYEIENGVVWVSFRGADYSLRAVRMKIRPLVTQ
Sequence of UniProt P02671 (P02675 45-491, chain 2 of 3, further chain): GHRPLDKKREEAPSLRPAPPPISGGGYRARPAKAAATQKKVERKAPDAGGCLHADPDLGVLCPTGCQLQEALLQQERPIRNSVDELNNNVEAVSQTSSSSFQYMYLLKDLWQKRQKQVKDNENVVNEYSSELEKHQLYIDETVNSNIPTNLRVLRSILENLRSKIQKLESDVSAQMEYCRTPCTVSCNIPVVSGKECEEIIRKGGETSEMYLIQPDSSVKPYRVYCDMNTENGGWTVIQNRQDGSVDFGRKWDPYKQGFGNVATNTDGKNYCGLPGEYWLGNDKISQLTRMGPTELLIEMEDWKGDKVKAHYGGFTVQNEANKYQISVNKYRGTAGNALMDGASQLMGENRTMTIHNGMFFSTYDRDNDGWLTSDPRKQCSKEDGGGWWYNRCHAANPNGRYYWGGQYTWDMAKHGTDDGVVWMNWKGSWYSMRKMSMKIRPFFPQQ
Sequence of UniProt P02671 (P02679 27-453, chain 3 of 3, further chain): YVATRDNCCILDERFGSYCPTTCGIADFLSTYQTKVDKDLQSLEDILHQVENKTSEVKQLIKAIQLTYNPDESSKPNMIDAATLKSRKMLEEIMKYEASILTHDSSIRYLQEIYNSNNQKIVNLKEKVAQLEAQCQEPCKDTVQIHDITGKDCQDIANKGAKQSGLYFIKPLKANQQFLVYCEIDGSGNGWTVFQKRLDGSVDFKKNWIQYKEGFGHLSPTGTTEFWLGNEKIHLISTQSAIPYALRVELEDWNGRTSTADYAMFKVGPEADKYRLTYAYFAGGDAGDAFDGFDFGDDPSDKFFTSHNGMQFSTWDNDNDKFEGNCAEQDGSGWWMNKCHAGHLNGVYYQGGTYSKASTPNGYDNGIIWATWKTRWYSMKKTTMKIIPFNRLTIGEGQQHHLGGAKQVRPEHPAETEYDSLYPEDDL

pKd [1]: 7.00
pKd (Human fibrinogen (human)): 6.66
Substance: recombinant αD I-domain in an active conformation (domain or fragment)

From article PMC9204313
